Holding throughout (test): split reporter
Assay [1] concerns the target zipped β1–10 of the ZipGFP caspase reporter (E5-β1–10-K5 with DEVD), cleaved upon apoptosis.
For assay [2], the target named is β1–10 part of ZipGFP with TEV cleavage sequence (E5-β1–10-K5), cleaved by TEV protease, purified.
Assay [3] has as its target zipped β1–10 of ZipGFP with TEV cleavage sequence (E5-β1–10-K5), cleaved by co-expressed TEV protease.

For the substance “zipped β11 of the ZipGFP caspase reporter (K5-β11-E5 with DEVD), cleaved upon apoptosis”, in assay [1], the fold increase of green fluorescence (normalized to mCherry) upon apoptosis lay within 5 to 10 fold.

In turn, “β11 part of ZipGFP with TEV cleavage sequence (K5-β11-E5), cleaved by TEV protease, purified” yielded a time to half-maximal fluorescence (T1/2) after mixing in assay [2] of 40 min. Turning to “zipped β11 of ZipGFP with TEV cleavage sequence (K5-β11-E5), cleaved by co-expressed TEV protease”, in assay [3], the fold increase of green fluorescence over the uncleaved reporter worked out at 10 fold.

The values are drawn from PMC5026494.
